# In the Human Domainome abundance scans (Beltran et al. 2025):
# ± gives the uncertainty stated by the source.
# B1: Peroxisome proliferator-activated receptor delta, residues 71 to 145; numbered along this chain, Q03181 (parent)
# chain: NMECRVCGDKASGFHYGVHACEGCKGFFRRTIRMKLEYEKCERSCKIQKKNRNKCQYCRFQKCLALGMSHNAIRF
# Variants of: B1
# Experiment: abundance fitness (aPCA) (normalised: wild type 0, dead -1); higher = more abundant; growth selection in yeast, the domain comes from the species named
# Conditions: Homo sapiens
row,Variant,abundance fitness
1,NMECRVCGDKASGFHYGVHACEGCKGFFRRTIRMKLEYEKCERSCKIQKKNRNKCQYCRFQKCLALGMSHNAIWF,-0.084 ± 0.06
2,NMECRVCGDKASGFHYGVHACEGCKGFFRRTIRMKLEYEKCERSCKIQKKNRNKCQYCRFQKCLALGMSHNAIPF,0.151 ± 0.047
3,NMECRVCGDKASGFHYGVHACEGCKGFFRRTIRMKLEYEKCERSCKIQKKNRNKCQYCRFQKCLALGMSHNAIEF,0.259 ± 0.052
4,NMECRVCGDKASGFHYGVHACEGCKGFFRRTIRMKLEYEKCERSCKIQKKNRNKCQYCRFQKCLALGMSHNAIMF,0.004 ± 0.081
5,NMECRVCGDKASGFHYGVHACEGCKGFFRRTIRMKLEYEKCERSCKIQKKNRNKCQYCRFQKCLALGMSHNAIYF,-0.081 ± 0.14
6,NMECRVCGDKASGFHYGVHACEGCKGFFRRTIRMKLEYEKCERSCKIQKKNRNKCQYCRFQKCLALGMSHNAIIF,0.001 ± 0.11
7,NMECRVCGDKASGFHYGVHACEGCKGFFRRTIRMKLEYEKCERSCKIQKKNRNKCQYCRFQKCLALGMSHNAIVF,-0.013 ± 0.061
8,NMECRVCGDKASGFHYGVHACEGCKGFFRRTIRMKLEYEKCERSCKIQKKNRNKCQYCRFQKCLALGMSHNAITF,0.071 ± 0.062
9,NMECRVCGDKASGFHYGVHACEGCKGFFRRTIRMKLEYEKCERSCKIQKKNRNKCQYCRFQKCLALGMSHNAIGF,0.224 ± 0.038
10,NMECRVCGDKASGFHYGVHACEGCKGFFRRTIRMKLEYEKCERSCKIQKKNRNKCQYCRFQKCLALGMSHNAISF,0.093 ± 0.046
11,NMECRVCGDKASGFHYGVHACEGCKGFFRRTIRMKLEYEKCERSCKIQKKNRNKCQYCRFQKCLALGMSHNAIFF,0.049 ± 0.18
12,NMECRVCGDKASGFHYGVHACEGCKGFFRRTIRMKLEYEKCERSCKIQKKNRNKCQYCRFQKCLALGMSHNAINF,0.011 ± 0.15
13,NMECRVCGDKASGFHYGVHACEGCKGFFRRTIRMKLEYEKCERSCKIQKKNRNKCQYCRFQKCLALGMSHNAIQF,0.284 ± 0.06
14,NMECRVCGDKASGFHYGVHACEGCKGFFRRTIRMKLEYEKCERSCKIQKKNRNKCQYCRFQKCLALGMSHNAIAF,0.079 ± 0.05
15,NMECRVCGDKASGFHYGVHACEGCKGFFRRTIRMKLEYEKCERSCKIQKKNRNKCQYCRFQKCLALGMSHNAICF,-0.141 ± 0.099
16,NMECRVCGDKASGFHYGVHACEGCKGFFRRTIRMKLEYEKCERSCKIQKKNRNKCQYCRFQKCLALGMSHNAIKF,0.067 ± 0.075
17,NMECRVCGDKASGFHYGVHACEGCKGFFRRTIRMKLEYEKCERSCKIQKKNRNKCQYCRFQKCLALGMSHNAIRD,0.285 ± 0.09
18,NMECRVCGDKASGFHYGVHACEGCKGFFRRTIRMKLEYEKCERSCKIQKKNRNKCQYCRFQKCLALGMSHNAIRA,0.15 ± 0.08

row,Variant,abundance fitness
1,NMECRVCGDKASGFHYGVHACEGCKGFFRRTIRMKLEYEKCERSCKIQKKNRNKCQYCRFQKCLALGMSHNAIRR,0.066 ± 0.054
2,NMECRVCGDKASGFHYGVHACEGCKGFFRRTIRMKLEYEKCERSCKIQKKNRNKCQYCRFQKCLALGMSHNAIRI,-0.023 ± 0.09
3,NMECRVCGDKASGFHYGVHACEGCKGFFRRTIRMKLEYEKCERSCKIQKKNRNKCQYCRFQKCLALGMSHNAIRM,-0.192 ± 0.12
4,NMECRVCGDKASGFHYGVHACEGCKGFFRRTIRMKLEYEKCERSCKIQKKNRNKCQYCRFQKCLALGMSHNAIRL,0.128 ± 0.05
5,NMECRVCGDKASGFHYGVHACEGCKGFFRRTIRMKLEYEKCERSCKIQKKNRNKCQYCRFQKCLALGMSHNAIRT,0.171 ± 0.069
6,NMECRVCGDKASGFHYGVHACEGCKGFFRRTIRMKLEYEKCERSCKIQKKNRNKCQYCRFQKCLALGMSHNAIRN,-0.021 ± 0.094
7,NMECRVCGDKASGFHYGVHACEGCKGFFRRTIRMKLEYEKCERSCKIQKKNRNKCQYCRFQKCLALGMSHNAIRG,0.218 ± 0.047
8,NMECRVCGDKASGFHYGVHACEGCKGFFRRTIRMKLEYEKCERSCKIQKKNRNKCQYCRFQKCLALGMSHNAIRE,0.088 ± 0.09
9,NMECRVCGDKASGFHYGVHACEGCKGFFRRTIRMKLEYEKCERSCKIQKKNRNKCQYCRFQKCLALGMSHNAIRQ,0.301 ± 0.093
10,NMECRVCGDKASGFHYGVHACEGCKGFFRRTIRMKLEYEKCERSCKIQKKNRNKCQYCRFQKCLALGMSHNAIRK,0.238 ± 0.11
11,NMECRVCGDKASGFHYGVHACEGCKGFFRRTIRMKLEYEKCERSCKIQKKNRNKCQYCRFQKCLALGMSHNAIRC,0.193 ± 0.064
12,NMECRVCGDKASGFHYGVHACEGCKGFFRRTIRMKLEYEKCERSCKIQKKNRNKCQYCRFQKCLALGMSHNAIRP,0.152 ± 0.057
13,NMECRVCGDKASGFHYGVHACEGCKGFFRRTIRMKLEYEKCERSCKIQKKNRNKCQYCRFQKCLALGMSHNAIRS,0.216 ± 0.049
14,NMECRVCGDKASGFHYGVHACEGCKGFFRRTIRMKLEYEKCERSCKIQKKNRNKCQYCRFQKCLALGMSHYAIRF,-0.337 ± 0.089
15,NMECRVCGDKASGFHYGVHACEGCKGFFRRTIRMKLEYEKCERSCKIQKKNRNKCQYCRFQKCLALGMSHQAIRF,0.034 ± 0.051
16,NMECRVCGDKASGFHYGVHACEGCKGFFRRTIRMKLEYEKCERSCKIQKKNRNKCQYCRFQKCLALGMSHVAIRF,-0.31 ± 0.046
17,NMECRVCGDKASGFHYGVHACEGCKGFFRRTIRMKLEYEKCERSCKIQKKNRNKCQYCRFQKCLALGMSHPAIRF,0.095 ± 0.047
18,NMECRVCGDKASGFHYGVHACEGCKGFFRRTIRMKLEYEKCERSCKIQKKNRNKCQYCRFQKCLALGMSHRAIRF,-0.242 ± 0.036
